Measured values as given in IntAct's records for PubMed 21600204.

B1: Hemolysin expression-modulating protein Hha (Escherichia coli (strain K12)), P0ACE3 (parent)
chain: MSEKPLTKTDYLMRLRRCQTIDTLERVIEKNKYELSDNELAVFYSAADHRLAELTMNKLYDKIPSSVWKFIR
partner: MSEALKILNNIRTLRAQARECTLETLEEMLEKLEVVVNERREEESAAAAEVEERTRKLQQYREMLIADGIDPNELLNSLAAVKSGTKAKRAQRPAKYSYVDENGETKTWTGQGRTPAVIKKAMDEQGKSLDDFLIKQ
B2: OriC-binding nucleoid-associated protein (Escherichia coli (strain K12)), P64467 (parent)
chain: MTVQDYLLKFRKISSLESLEKLYDHLNYTLTDDQELINMYRAADHRRAELVSGGRLFDLGQVPKSVWHYVQ
partner: B1 partner

Variants of: B1
Conditions: with hns_ecoli hns

| Variant | effect of a mutation on the interaction |
| --- | --- |
| MSEKPLTKTDYLMRLRRCQTIDTLERVIEKNKYELSDNELAVFYSAANHRLAELTMNKLYDKIPSSVWKFIR [D48N] | disrupting interaction |

Variants of: B1
Conditions: with hns_ecoli hns
Remark: another data set of the same source

| Variant | effect of a mutation on the interaction |
| --- | --- |
| MSEKPLTKTDYLMRLRRCQTIDTLQRVIEKNKYELSDNELAVFYSAADHRLAELTMNKLYDKIPSSVWKFIR [E25Q] | decreasing interaction |

Variants of: B2
Conditions: with hns_ecoli hns

| Variant | effect of a mutation on the interaction |
| --- | --- |
| MTVQDYLLKFRKISSLESLEKLYDHLNYTLTDDQELINMYRAANHRRAELVSGGRLFDLGQVPKSVWHYVQ [D44N] | disrupting interaction |
